B1: CPEB3 Ribozyme (parent)
chain: UAACAGGGGGCCACAGCAGAAGCGUUCACGUCGCAGCCCCUGUCAGAUUCUGGUGAAUCUGCGAAUUCUGCUGUAUAUCUC

Variants of: B1
Assay: self-cleavage, relative activity (ratio to wild type); higher = more cleavage; in vitro, sequencing
Summary of the method: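 For each CPEB3 ribozyme variant, relative activity is its cleaved/total read fraction divided by the unmutated ribozyme's. Barcoded error-prone PCR libraries were transcribed by T7 RNA polymerase (5 hours, 37°C) and held in DNase I for 15 min before an EDTA stop, with cleavage occurring throughout. Template-switching reverse transcription and Illumina sequencing were used to read the RNAs. A 5-read minimum applied, and results are the mean of three batches.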

Row | Variant | self-cleavage
1 | UAACAGUGGGCCACAGCAGAAGCGUUCACGUCGCAGCCCCUGUCAGAUUCUGGUGAAUCUGCGAAUUCUGCUGAAUAUCUC [G7U U74A] | 0.22
2 | UAACAGUGGGCCACAGCAGAAGCGUUCACGUCGCAGCCCCUGUCAGAUUCUGGUGAAUCUGCGAAUUCUGCUGCAUAUCUC [G7U U74C] | 0.46
3 | UAACAGUGGGCCACAGCAGAAGCGUUCACGUCGCAGCCCCUGUCAGAUUCUGGUGAAUCUGCGAAUUCUGCUGUAUAACUC [G7U U78A] | 0.48
4 | UAACAGUGGGCCACAGCAGAAGCGUUCACGUCGCAGCCCCUGUCAGAUUCUGGUGAAUCUGCGAAUUCUGCUGUAUACCUC [G7U U78C] | 0.13
5 | UAACAGUGGGCCACAGCAGAAGCGUUCACGUCGCAGCCCCUGUCAGAUUCUGGUGAAUCUGCGAAUUCUGCUGUAUAUCCC [G7U U80C] | 0.27
6 | UAACAGGAGGCCACAGCAGAAGCGUUCACGUCGCAGCCCCUGUCAGAUUCUGGUGAAUCUGCGAAUUCUGCUGUAUAUCUC [G8A] | 0.27
7 | UAACAGGAGGCCGCAGCAGAAGCGUUCACGUCGCAGCCCCUGUCAGAUUCUGGUGAAUCUGCGAAUUCUGCUGUAUAUCUC [G8A A13G] | 0.44
8 | UAACAGGAGGCCUCAGCAGAAGCGUUCACGUCGCAGCCCCUGUCAGAUUCUGGUGAAUCUGCGAAUUCUGCUGUAUAUCUC [G8A A13U] | 0.3
9 | UAACAGGAGGCCACCGCAGAAGCGUUCACGUCGCAGCCCCUGUCAGAUUCUGGUGAAUCUGCGAAUUCUGCUGUAUAUCUC [G8A A15C] | 0.31
10 | UAACAGGAGGCCACGGCAGAAGCGUUCACGUCGCAGCCCCUGUCAGAUUCUGGUGAAUCUGCGAAUUCUGCUGUAUAUCUC [G8A A15G] | 0.3
11 | UAACAGGAGGCCACUGCAGAAGCGUUCACGUCGCAGCCCCUGUCAGAUUCUGGUGAAUCUGCGAAUUCUGCUGUAUAUCUC [G8A A15U] | 0.16
12 | UAACAGGAGGCCACAGCGGAAGCGUUCACGUCGCAGCCCCUGUCAGAUUCUGGUGAAUCUGCGAAUUCUGCUGUAUAUCUC [G8A A18G] | 0.21
13 | UAACAGGAGGCCACAGCUGAAGCGUUCACGUCGCAGCCCCUGUCAGAUUCUGGUGAAUCUGCGAAUUCUGCUGUAUAUCUC [G8A A18U] | 0.07
14 | UAACAGGAGGCCACAGCAGGAGCGUUCACGUCGCAGCCCCUGUCAGAUUCUGGUGAAUCUGCGAAUUCUGCUGUAUAUCUC [G8A A20G] | 0.25
15 | UAACAGGAGGCCACAGCAGUAGCGUUCACGUCGCAGCCCCUGUCAGAUUCUGGUGAAUCUGCGAAUUCUGCUGUAUAUCUC [G8A A20U] | 0.22
16 | UAACAGGAGGCCACAGCAGAGGCGUUCACGUCGCAGCCCCUGUCAGAUUCUGGUGAAUCUGCGAAUUCUGCUGUAUAUCUC [G8A A21G] | 0.28
17 | UAACAGGAGGCCACAGCAGAAGCGUUCGCGUCGCAGCCCCUGUCAGAUUCUGGUGAAUCUGCGAAUUCUGCUGUAUAUCUC [G8A A28G] | 0.23

Row | Variant | self-cleavage
18 | UAACAGGAGGCCACAGCAGAAGCGUUCUCGUCGCAGCCCCUGUCAGAUUCUGGUGAAUCUGCGAAUUCUGCUGUAUAUCUC [G8A A28U] | 0.14
19 | UAACAGGAGGCCACAGCAGAAGCGUUCACGUCGCCGCCCCUGUCAGAUUCUGGUGAAUCUGCGAAUUCUGCUGUAUAUCUC [G8A A35C] | 0.21
20 | UAACAGGAGGCCACAGCAGAAGCGUUCACGUCGCGGCCCCUGUCAGAUUCUGGUGAAUCUGCGAAUUCUGCUGUAUAUCUC [G8A A35G] | 0.5
21 | UAACAGGAGGCCACAGCAGAAGCGUUCACGUCGCUGCCCCUGUCAGAUUCUGGUGAAUCUGCGAAUUCUGCUGUAUAUCUC [G8A A35U] | 0.14
22 | UAACAGGAGGCCACAGCAGAAGCGUUCACGUCGCAGCCCCUGUCGGAUUCUGGUGAAUCUGCGAAUUCUGCUGUAUAUCUC [G8A A45G] | 0.29
23 | UAACAGGAGGCCACAGCAGAAGCGUUCACGUCGCAGCCCCUGUCUGAUUCUGGUGAAUCUGCGAAUUCUGCUGUAUAUCUC [G8A A45U] | 0.06
24 | UAACAGGAGGCCACAGCAGAAGCGUUCACGUCGCAGCCCCUGUCAGGUUCUGGUGAAUCUGCGAAUUCUGCUGUAUAUCUC [G8A A47G] | 0.23
25 | UAACAGGAGGCCACAGCAGAAGCGUUCACGUCGCAGCCCCUGUCAGUUUCUGGUGAAUCUGCGAAUUCUGCUGUAUAUCUC [G8A A47U] | 0.2
26 | UAACAGGAGGCCACAGCAGAAGCGUUCACGUCGCAGCCCCUGUCAGAUUCUGGUGCAUCUGCGAAUUCUGCUGUAUAUCUC [G8A A56C] | 0.24
27 | UAACAGGAGGCCACAGCAGAAGCGUUCACGUCGCAGCCCCUGUCAGAUUCUGGUGGAUCUGCGAAUUCUGCUGUAUAUCUC [G8A A56G] | 0.24
28 | UAACAGGAGGCCACAGCAGAAGCGUUCACGUCGCAGCCCCUGUCAGAUUCUGGUGUAUCUGCGAAUUCUGCUGUAUAUCUC [G8A A56U] | 0.38
29 | UAACAGGAGGCCACAGCAGAAGCGUUCACGUCGCAGCCCCUGUCAGAUUCUGGUGAGUCUGCGAAUUCUGCUGUAUAUCUC [G8A A57G] | 0.26
30 | UAACAGGAGGCCACAGCAGAAGCGUUCACGUCGCAGCCCCUGUCAGAUUCUGGUGAUUCUGCGAAUUCUGCUGUAUAUCUC [G8A A57U] | 0.11
31 | UAACAGGAGGCCACAGCAGAAGCGUUCACGUCGCAGCCCCUGUCAGAUUCUGGUGAAUCUGCGGAUUCUGCUGUAUAUCUC [G8A A64G] | 0.22
32 | UAACAGGAGGCCACAGCAGAAGCGUUCACGUCGCAGCCCCUGUCAGAUUCUGGUGAAUCUGCGUAUUCUGCUGUAUAUCUC [G8A A64U] | 0.27
33 | UAACAGGAGGCCACAGCAGAAGCGUUCACGUCGCAGCCCCUGUCAGAUUCUGGUGAAUCUGCGAGUUCUGCUGUAUAUCUC [G8A A65G] | 0.14
34 | UAACAGGAGGCCACAGCAGAAGCGUUCACGUCGCAGCCCCUGUCAGAUUCUGGUGAAUCUGCGAUUUCUGCUGUAUAUCUC [G8A A65U] | 0.06

Source: the RNAGym collection of RNA variant scans (doi:10.1093/nar/gkz1192)
